{"source": "patent US20250339531A1", "about": "“DUX4 POLYPEPTIDES AND NUCLEIC ACIDS FOR TREATING INFLAMMATORY AND AUTOIMMUNE CONDITIONS” (Fred Hutchinson Cancer Center, priority 2021, published 2025)", "experiment_in_all_cases": "anti-FLAG co-IP LC-MS, exp 3, +IFNg +Dox", "key": {"[1]": {"biological_target": "Splicing factor 3B subunit 3 (Homo sapiens) (UniProt Q15393)"}, "[2]": {"biological_target": "Reticulon-4 (Homo sapiens) (UniProt Q9NQC3)", "sequence (Q9NQC3 whole entry)": "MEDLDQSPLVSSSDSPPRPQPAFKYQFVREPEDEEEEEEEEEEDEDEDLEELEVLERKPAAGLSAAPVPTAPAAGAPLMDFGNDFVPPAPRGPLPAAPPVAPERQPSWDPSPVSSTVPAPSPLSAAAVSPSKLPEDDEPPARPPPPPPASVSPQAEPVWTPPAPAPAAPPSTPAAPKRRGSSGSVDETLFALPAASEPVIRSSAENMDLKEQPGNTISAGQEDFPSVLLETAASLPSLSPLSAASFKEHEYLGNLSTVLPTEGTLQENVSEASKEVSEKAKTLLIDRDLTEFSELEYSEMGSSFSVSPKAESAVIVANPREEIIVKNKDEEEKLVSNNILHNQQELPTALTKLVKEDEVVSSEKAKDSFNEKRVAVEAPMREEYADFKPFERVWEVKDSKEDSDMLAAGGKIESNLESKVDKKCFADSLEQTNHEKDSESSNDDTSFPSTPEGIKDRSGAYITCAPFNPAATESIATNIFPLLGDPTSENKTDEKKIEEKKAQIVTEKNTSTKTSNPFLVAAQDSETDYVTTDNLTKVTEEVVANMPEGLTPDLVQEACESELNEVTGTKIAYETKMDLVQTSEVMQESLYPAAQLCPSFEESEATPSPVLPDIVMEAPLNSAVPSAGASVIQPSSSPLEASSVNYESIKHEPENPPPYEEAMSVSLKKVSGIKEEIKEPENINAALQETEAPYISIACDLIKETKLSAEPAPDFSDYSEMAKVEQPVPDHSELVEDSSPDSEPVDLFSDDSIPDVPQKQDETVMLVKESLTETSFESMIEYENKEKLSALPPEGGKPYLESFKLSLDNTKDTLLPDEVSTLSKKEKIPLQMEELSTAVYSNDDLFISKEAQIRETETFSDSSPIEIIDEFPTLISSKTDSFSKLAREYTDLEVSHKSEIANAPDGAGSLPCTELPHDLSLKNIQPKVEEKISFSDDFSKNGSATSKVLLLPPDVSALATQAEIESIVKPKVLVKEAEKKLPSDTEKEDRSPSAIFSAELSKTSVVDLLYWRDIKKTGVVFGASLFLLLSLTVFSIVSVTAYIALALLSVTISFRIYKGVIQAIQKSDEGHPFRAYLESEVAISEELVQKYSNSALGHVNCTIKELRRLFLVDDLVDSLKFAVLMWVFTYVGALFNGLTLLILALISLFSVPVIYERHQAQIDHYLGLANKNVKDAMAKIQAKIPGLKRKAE"}, "[3]": {"biological_target": "60S ribosomal protein L18a (Homo sapiens) (UniProt Q02543)"}, "[4]": {"biological_target": "Elongation factor 1-gamma (Homo sapiens) (UniProt P26641)"}, "[5]": {"biological_target": "Heat shock cognate 71 kDa protein (Homo sapiens) (UniProt P11142)"}, "[6]": {"biological_target": "Tubulin alpha chain (Homo sapiens) (UniProt F5H5D3)"}, "[7]": {"biological_target": "60S ribosomal protein L18 (Fragment) (Homo sapiens) (UniProt Q07020)"}, "[8]": {"biological_target": "Fibronectin (Homo sapiens) (UniProt P02751)", "sequence (P02751 32-2477 limits assumed)": "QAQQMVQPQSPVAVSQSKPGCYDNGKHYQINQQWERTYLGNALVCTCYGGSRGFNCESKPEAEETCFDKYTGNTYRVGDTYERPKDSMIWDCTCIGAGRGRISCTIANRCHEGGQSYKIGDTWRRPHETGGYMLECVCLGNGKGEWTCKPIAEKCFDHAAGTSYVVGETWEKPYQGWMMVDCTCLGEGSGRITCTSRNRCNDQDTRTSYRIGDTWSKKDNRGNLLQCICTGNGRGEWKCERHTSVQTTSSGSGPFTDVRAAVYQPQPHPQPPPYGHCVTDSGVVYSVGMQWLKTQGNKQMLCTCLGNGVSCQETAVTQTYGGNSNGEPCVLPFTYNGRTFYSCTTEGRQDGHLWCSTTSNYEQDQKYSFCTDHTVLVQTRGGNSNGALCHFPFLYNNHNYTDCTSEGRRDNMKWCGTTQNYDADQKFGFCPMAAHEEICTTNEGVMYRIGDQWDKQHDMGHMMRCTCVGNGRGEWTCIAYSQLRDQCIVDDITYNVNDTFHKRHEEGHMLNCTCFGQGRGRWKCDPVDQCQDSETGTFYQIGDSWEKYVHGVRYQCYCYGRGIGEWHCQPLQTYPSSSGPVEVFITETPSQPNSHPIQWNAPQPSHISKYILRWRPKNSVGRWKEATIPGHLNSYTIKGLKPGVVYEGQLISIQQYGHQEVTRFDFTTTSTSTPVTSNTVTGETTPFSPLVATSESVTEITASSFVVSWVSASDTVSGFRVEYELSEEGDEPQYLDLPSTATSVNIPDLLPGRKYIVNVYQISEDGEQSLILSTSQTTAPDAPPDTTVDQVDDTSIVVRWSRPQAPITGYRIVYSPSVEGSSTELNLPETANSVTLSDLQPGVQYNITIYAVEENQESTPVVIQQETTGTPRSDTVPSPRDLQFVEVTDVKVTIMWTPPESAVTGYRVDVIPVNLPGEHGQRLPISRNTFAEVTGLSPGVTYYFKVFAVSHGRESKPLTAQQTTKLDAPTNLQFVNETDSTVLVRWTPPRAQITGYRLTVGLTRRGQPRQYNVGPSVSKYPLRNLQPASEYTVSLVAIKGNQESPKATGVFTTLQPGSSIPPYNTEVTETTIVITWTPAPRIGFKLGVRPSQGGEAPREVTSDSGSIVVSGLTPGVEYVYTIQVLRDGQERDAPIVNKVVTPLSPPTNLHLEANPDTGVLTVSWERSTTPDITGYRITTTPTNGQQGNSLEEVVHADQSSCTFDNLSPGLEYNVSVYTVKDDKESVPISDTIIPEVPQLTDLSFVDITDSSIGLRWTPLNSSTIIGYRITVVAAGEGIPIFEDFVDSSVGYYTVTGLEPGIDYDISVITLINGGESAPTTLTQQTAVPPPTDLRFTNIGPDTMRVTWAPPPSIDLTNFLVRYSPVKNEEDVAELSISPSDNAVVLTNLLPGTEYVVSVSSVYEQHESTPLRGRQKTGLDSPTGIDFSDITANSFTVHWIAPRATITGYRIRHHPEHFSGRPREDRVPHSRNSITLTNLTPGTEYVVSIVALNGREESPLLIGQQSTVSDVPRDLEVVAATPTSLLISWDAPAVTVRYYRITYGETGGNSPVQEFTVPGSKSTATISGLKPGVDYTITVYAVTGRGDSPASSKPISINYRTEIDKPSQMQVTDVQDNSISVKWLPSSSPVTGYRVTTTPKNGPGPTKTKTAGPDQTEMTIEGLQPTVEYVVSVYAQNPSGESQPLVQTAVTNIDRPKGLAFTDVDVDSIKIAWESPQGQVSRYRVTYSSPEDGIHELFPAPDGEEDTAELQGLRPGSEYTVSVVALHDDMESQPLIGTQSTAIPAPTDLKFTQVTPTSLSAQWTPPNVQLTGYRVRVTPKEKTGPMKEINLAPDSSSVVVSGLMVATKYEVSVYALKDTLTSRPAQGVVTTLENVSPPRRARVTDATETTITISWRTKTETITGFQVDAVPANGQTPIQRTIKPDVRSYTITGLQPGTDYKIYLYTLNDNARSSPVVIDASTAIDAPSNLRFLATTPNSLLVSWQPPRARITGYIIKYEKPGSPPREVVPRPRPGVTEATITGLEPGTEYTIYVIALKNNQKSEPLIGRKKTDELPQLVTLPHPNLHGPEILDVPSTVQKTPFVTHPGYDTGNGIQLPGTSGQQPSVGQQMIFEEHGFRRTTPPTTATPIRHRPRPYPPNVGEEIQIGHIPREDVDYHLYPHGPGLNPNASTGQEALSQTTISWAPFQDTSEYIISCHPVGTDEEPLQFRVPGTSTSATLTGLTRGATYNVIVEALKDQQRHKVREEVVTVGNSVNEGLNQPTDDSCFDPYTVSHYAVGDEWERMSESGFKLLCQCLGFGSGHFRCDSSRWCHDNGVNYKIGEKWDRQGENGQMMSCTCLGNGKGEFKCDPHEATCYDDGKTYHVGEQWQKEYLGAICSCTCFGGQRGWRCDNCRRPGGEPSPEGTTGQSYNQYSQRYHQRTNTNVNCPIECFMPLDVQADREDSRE"}, "[9]": {"biological_target": "Ras GTPase-activating protein-binding protein 2 (Homo sapiens) (UniProt Q9UN86)"}, "[10]": {"biological_target": "40S ribosomal protein S8 (Homo sapiens) (UniProt P62241)"}, "[11]": {"biological_target": "60S ribosomal protein L19 (Homo sapiens) (UniProt P84098)"}, "[12]": {"biological_target": "40S ribosomal protein S4, X isoform (Homo sapiens) (UniProt P62701)"}, "[13]": {"biological_target": "T-complex protein 1 subunit theta (Homo sapiens) (UniProt P50990)"}, "[14]": {"biological_target": "Tubulin alpha-4A chain (Homo sapiens) (UniProt P68366)"}, "[15]": {"biological_target": "Heat shock protein HSP 90-alpha (Homo sapiens) (UniProt P07900)"}, "Filamin-C (Homo sapiens)": {"biological_target": "Filamin-C (Homo sapiens) (UniProt Q14315)"}, "[16]": {"biological_target": "Plasminogen activator inhibitor 1 (Homo sapiens) (UniProt P05121)", "sequence (P05121 24-402 limits assumed)": "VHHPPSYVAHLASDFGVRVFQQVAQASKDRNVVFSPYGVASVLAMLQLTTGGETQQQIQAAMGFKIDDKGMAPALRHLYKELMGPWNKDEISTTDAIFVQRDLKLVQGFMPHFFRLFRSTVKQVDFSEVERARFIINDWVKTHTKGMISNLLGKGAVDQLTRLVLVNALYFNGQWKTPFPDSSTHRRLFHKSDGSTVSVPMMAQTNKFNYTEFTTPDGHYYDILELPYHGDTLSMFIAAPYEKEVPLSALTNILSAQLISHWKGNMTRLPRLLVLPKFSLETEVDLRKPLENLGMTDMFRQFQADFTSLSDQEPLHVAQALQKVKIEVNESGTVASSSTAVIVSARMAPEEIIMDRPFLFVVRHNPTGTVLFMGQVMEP"}, "[17]": {"biological_target": "60S ribosomal protein L8 (Homo sapiens) (UniProt P62917)"}, "[18]": {"biological_target": "D-3-phosphoglycerate dehydrogenase (Homo sapiens) (UniProt O43175)"}, "[19]": {"biological_target": "Ribonuclease inhibitor (Homo sapiens) (UniProt P13489)", "sequence (P13489 2-461 limits assumed)": "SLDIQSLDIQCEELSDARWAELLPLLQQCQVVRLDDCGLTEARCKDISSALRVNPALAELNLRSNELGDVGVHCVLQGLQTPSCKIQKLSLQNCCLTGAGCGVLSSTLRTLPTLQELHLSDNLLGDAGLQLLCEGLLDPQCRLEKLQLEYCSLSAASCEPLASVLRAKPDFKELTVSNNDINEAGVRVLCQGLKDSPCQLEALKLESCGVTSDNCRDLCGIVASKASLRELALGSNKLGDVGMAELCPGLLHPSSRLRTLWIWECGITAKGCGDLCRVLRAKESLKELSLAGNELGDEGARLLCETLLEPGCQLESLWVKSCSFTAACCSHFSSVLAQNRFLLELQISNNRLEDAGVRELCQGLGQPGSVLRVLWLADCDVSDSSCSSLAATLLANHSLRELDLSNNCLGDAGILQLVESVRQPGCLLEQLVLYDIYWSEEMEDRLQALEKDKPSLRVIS"}, "[20]": {"biological_target": "60 kDa heat shock protein, mitochondrial (Homo sapiens) (UniProt P10809)"}, "[21]": {"biological_target": "S-adenosylhomocysteine hydrolase-like protein 1 (Homo sapiens) (UniProt O43865)"}, "Serpin B3 (Homo sapiens)": {"biological_target": "Serpin B3 (Homo sapiens) (UniProt P29508)"}, "[22]": {"biological_target": "Tubulin beta-2A chain (Homo sapiens) (UniProt Q13885)"}, "[23]": {"biological_target": "Neutral cholesterol ester hydrolase 1 (Homo sapiens) (UniProt Q6PIU2)"}, "[24]": {"biological_target": "Protein disulfide-isomerase A3 (Fragment) (Homo sapiens) (UniProt P30101)"}, "[25]": {"biological_target": "AP-2 complex subunit beta (Homo sapiens) (UniProt P63010)"}, "[26]": {"biological_target": "Procollagen-lysine,2-oxoglutarate 5-dioxygenase 2 (Homo sapiens) (UniProt O00469)"}, "[27]": {"biological_target": "Nucleosome assembly protein 1-like 1 (Homo sapiens) (UniProt P55209)"}, "Plectin (Homo sapiens)": {"biological_target": "Plectin (Homo sapiens) (UniProt Q15149)"}, "[28]": {"biological_target": "Dolichyl-diphosphooligosaccharide--protein glycosyltransferase subunit 1 (Homo sapiens) (UniProt P04843)"}, "[29]": {"biological_target": "Heat shock protein HSP 90-beta (Homo sapiens) (UniProt P08238)"}, "[30]": {"biological_target": "Neuroblast differentiation-associated protein AHNAK (Homo sapiens) (UniProt Q09666)"}, "[31]": {"biological_target": "Histone acetyltransferase type B catalytic subunit (Homo sapiens) (UniProt O14929)"}, "[32]": {"biological_target": "Antigen peptide transporter 1 (Homo sapiens) (UniProt Q03518)"}, "[33]": {"biological_target": "Cytoskeleton-associated protein 4 (Homo sapiens) (UniProt Q07065)", "sequence (Q07065 whole entry)": "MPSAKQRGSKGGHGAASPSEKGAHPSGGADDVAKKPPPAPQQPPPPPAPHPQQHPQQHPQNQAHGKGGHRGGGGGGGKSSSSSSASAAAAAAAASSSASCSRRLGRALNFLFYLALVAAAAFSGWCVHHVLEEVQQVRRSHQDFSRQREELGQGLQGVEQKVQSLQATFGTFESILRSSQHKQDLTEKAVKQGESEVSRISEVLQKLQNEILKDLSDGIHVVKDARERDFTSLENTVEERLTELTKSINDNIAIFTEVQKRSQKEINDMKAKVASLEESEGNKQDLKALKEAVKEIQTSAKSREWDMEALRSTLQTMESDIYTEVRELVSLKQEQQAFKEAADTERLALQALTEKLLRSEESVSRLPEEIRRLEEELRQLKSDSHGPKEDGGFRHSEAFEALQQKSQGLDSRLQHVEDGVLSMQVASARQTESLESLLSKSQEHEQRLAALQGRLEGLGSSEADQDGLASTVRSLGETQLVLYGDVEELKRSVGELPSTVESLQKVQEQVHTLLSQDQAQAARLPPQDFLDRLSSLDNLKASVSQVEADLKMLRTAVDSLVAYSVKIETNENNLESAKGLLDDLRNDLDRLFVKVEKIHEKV"}}, "data": [{"substance": "i3XFLAG-NLS-CTDaa154-424", "values": [{"measurement": "PSMs", "setting": "[1]", "value": 3, "unit": "PSMs"}, {"measurement": "PSMs", "setting": "[2]", "value": 7, "unit": "PSMs"}, {"measurement": "PSMs", "setting": "[3]", "value": 2, "unit": "PSMs"}, {"measurement": "PSMs", "setting": "[4]", "value": 6, "unit": "PSMs"}, {"measurement": "PSMs", "setting": "[5]", "value": 54, "unit": "PSMs"}, {"measurement": "PSMs", "setting": "[6]", "value": 47, "unit": "PSMs"}, {"measurement": "PSMs", "setting": "[7]", "value": 5, "unit": "PSMs"}, {"measurement": "PSMs", "setting": "[8]", "value": 48, "unit": "PSMs"}, {"measurement": "PSMs", "setting": "[9]", "value": 3, "unit": "PSMs"}, {"measurement": "PSMs", "setting": "[10]", "value": 6, "unit": "PSMs"}, {"measurement": "PSMs", "setting": "[11]", "value": 2, "unit": "PSMs"}, {"measurement": "PSMs", "setting": "[12]", "value": 2, "unit": "PSMs"}, {"measurement": "PSMs", "setting": "[13]", "value": 2, "unit": "PSMs"}, {"measurement": "PSMs", "setting": "[14]", "value": 39, "unit": "PSMs"}, {"measurement": "PSMs", "setting": "[15]", "value": 9, "unit": "PSMs"}, {"measurement": "PSMs", "setting": "Filamin-C (Homo sapiens)", "value": 7, "unit": "PSMs"}, {"measurement": "PSMs", "setting": "[16]", "value": 3, "unit": "PSMs"}, {"measurement": "PSMs", "setting": "[17]", "value": 2, "unit": "PSMs"}, {"measurement": "PSMs", "setting": "[18]", "value": 3, "unit": "PSMs"}, {"measurement": "PSMs", "setting": "[19]", "value": 3, "unit": "PSMs"}, {"measurement": "PSMs", "setting": "[20]", "value": 2, "unit": "PSMs"}, {"measurement": "PSMs", "setting": "[21]", "value": 11, "unit": "PSMs"}, {"measurement": "PSMs", "setting": "Serpin B3 (Homo sapiens)", "value": 2, "unit": "PSMs"}, {"measurement": "PSMs", "setting": "[22]", "value": 61, "unit": "PSMs"}, {"measurement": "PSMs", "setting": "[23]", "value": 11, "unit": "PSMs"}, {"measurement": "PSMs", "setting": "[24]", "value": 2, "unit": "PSMs"}, {"measurement": "PSMs", "setting": "[25]", "value": 26, "unit": "PSMs"}, {"measurement": "PSMs", "setting": "[26]", "value": 3, "unit": "PSMs"}, {"measurement": "PSMs", "setting": "[27]", "value": 5, "unit": "PSMs"}, {"measurement": "PSMs", "setting": "Plectin (Homo sapiens)", "value": 21, "unit": "PSMs"}, {"measurement": "PSMs", "setting": "[28]", "value": 14, "unit": "PSMs"}, {"measurement": "PSMs", "setting": "[29]", "value": 14, "unit": "PSMs"}, {"measurement": "PSMs", "setting": "[30]", "value": 4, "unit": "PSMs"}, {"measurement": "PSMs", "setting": "[31]", "value": 3, "unit": "PSMs"}, {"measurement": "PSMs", "setting": "[32]", "value": 3, "unit": "PSMs"}, {"measurement": "PSMs", "setting": "[33]", "value": 62, "unit": "PSMs"}]}]}
